Reference: the supplement of paper PMC9170038

Legend:
[1] = system: MS2 coat protein; assay: apparent KD of MS2 coat protein, switch OFF state (with FMN for OFF switches, without FMN for ON switches); designed switch direction (-1 OFF switch, 1 ON switch): -1; higher = weaker reporter binding; conditions: FMN input: 0 or 200 uM; Eterna round: R93 (includes R88 designs)
In short: (§1)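 Designed RNA switches, transcribed on-chip from Illumina sequencing clusters, were titrated with SNAP-549-labelled MS2 coat protein from 0.7 or 1.5 nM to 3 µM in twofold steps. The solution was 100 mM Tris-HCl pH 7.5, 80 mM KCl, 4 mM MgCl2, with constant ligand or without it. Apparent KD is the median over each design's normalised cluster binding-curve fits.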

[2] = system: MS2 coat protein; assay: apparent KD of MS2 coat protein, switch ON state; designed switch direction (-1 OFF switch, 1 ON switch): -1; higher = weaker reporter binding; conditions: FMN input: 0 or 200 uM; Eterna round: R93 (includes R88 designs)
In short: as §1

AAAAAGUGAGGAUAUGUCAAAAGUCACAAAAGUGACAAAAGACAGAAGGCACAUGAGGAUCACCCAUGUGAAAA [Mod of Eli - Late G + early G segment 3]
apparent KD of MS2 coat protein [1]: 38.8 nM | apparent KD of MS2 coat protein [2]: 26.8 nM

AGAAACGAAGGAUAUACAUGAGGAUCACCCAUGUAAAGAAAGAGGAGAGCCACAAGAAGUAGAAGGUCGAAGAA [JR_Exc003_Sub007]
apparent KD of MS2 coat protein [1]: 50.7 nM | apparent KD of MS2 coat protein [2]: 27.4 nM

AGUAGAUCAGGAUAUACGUGAAAGGUCAAAGUGUCACUUCUACAUGAGGAUCACCCAUGUAGAAGGGAUCUACA [Ex2 Design 122: Not so Super Stable 9]
apparent KD of MS2 coat protein [1]: 12.4 nM | apparent KD of MS2 coat protein [2]: 12.9 nM

AUAAAGAGAGGAUAUACAUGAGGAUCACCCAUGUAAGAAAUAAAAUAAAUAAAGGGAAGUAGAAGGCUCAAAUA [Denovo 2]
apparent KD of MS2 coat protein [1]: 42.5 nM | apparent KD of MS2 coat protein [2]: 28 nM

ACCUUACAUGAGGAUCACCCAUGUUAGGAUAUCUCGCUUUCGCAAUCACAGCGCAAGCAGAGAAGGGACACGGG [Esceari]
apparent KD of MS2 coat protein [1]: 66.6 nM | apparent KD of MS2 coat protein [2]: 28.3 nM

AGCUAGUCAGGAUAUACGAACAUGACAAAAGACGUGAAGGGACAUGAGGAUCACCCAUGUAGAAGGGACUAGCA [74%, Web mod - With 1 less U's]
apparent KD of MS2 coat protein [1]: 89.7 nM | apparent KD of MS2 coat protein [2]: 38.7 nM

AAAGGAUCAGGAUAUGUGUGGAAAAAGUGUAUCCGAAAAAAACAUGAGGAUCACCCAUGUAGAAGGGAUCCAAA [Mod 3 of Normal (20/19) by Nando, Round 1]
apparent KD of MS2 coat protein [1]: 464 nM | apparent KD of MS2 coat protein [2]: 182 nM

AAGAAGGCAGGAUAUACAUGAGGAUCACCCAUGUAAAAGAAAGAAAAGGGAAAGAAAAGUAGAAGGGCCAAGAA [Kamose]
apparent KD of MS2 coat protein [1]: 72.1 nM | apparent KD of MS2 coat protein [2]: 35.4 nM

AAACUACUAGGAUAUGCAGAAAGGGUGUAUCCUUAAACUCCACAUGAGGAUCACCCAUGUAGAAGGAGUAAUCG [Dilaquis]
apparent KD of MS2 coat protein [1]: 46.4 nM | apparent KD of MS2 coat protein [2]: 32.4 nM

AGCUAGUGAGGAUAUACGAACAAGUAAACGGACUGUAAGGGACAUGAGGAUCACCCAUGUAGAAGGCACUAGCA [Diamond 59]
apparent KD of MS2 coat protein [1]: 74.5 nM | apparent KD of MS2 coat protein [2]: 28.6 nM

CAGUACUGAGGAUAUACAUGAGGAUCACCCAUGUGAUCAAGCUACGAAAGUAGCAAAAGUAGAAGGCAGUACUG [Ex3: 810]
apparent KD of MS2 coat protein [1]: 56.7 nM | apparent KD of MS2 coat protein [2]: 277 nM

AAAACGGUAGGAUAUACGAUUGGGAACUAGACCGAGAAACCACAUGAGGAUCACCCAUGUAGAAGGGCCAAAAA [Ex2 Malc#13]
apparent KD of MS2 coat protein [1]: 36.2 nM | apparent KD of MS2 coat protein [2]: 31.1 nM

AAACCACAUGAGGAUCACCCAUGUCAGGAUAUGAACGAAAAUAAAUAAAAAUAAAAGUUCAGAAGGGACGAAAA [66%, Wbt, 15]
apparent KD of MS2 coat protein [1]: 37.2 nM | apparent KD of MS2 coat protein [2]: 39.2 nM

GUGUACAGAGGAUAUACUAAAGCUAGGAAACUAGCAAGAUCACAUGAGGAUCACCCAUGUAGAAGGCUGUACAC [Ex2: 740]
apparent KD of MS2 coat protein [1]: 500 nM | apparent KD of MS2 coat protein [2]: 58.1 nM

AAGAAAGUAGGAUAUACAAGGAAGAAAGAAAAGAAAAGAAAACAUGAGGAUCACCCAUGUAGAAGGACUUAGAA [EteRNA is fun!]
apparent KD of MS2 coat protein [1]: 18.7 nM | apparent KD of MS2 coat protein [2]: 27.5 nM

AAGAACUGAGGAUAUACAAAAGAAAAGAAAAGAAAGAAAGAACAUGAGGAUCACCCAUGUAGAAGGCGGAAGAA [Khahotepre Sobekhotep VI]
apparent KD of MS2 coat protein [1]: 14.7 nM | apparent KD of MS2 coat protein [2]: 31.5 nM

AAAAAGGUAGGAUAUACGAAAAAAAAGGGUAGAAAAAAAACACAUGAGGAUCACCCAUGUAGAAGGACCAAAAA [Ex 2 sub 1]
apparent KD of MS2 coat protein [1]: 77.4 nM | apparent KD of MS2 coat protein [2]: 26.3 nM

AAGAAGGUAGGAUAUGCUAAAGAAAUAAAAAUAAAUAAAGAACAUGAGGAUCACCCAUGUAGAAGGGCCAAGAA [Mer[...]re]
apparent KD of MS2 coat protein [1]: 27.9 nM | apparent KD of MS2 coat protein [2]: 47.3 nM

AAAUAGCAAGGAUAUACAUGAGGAUCACCCAUGUGAAAAUGAUACGUAAUAGAAUAGAGUAGAAGGUGCAAAUA [Ex 3 Tesla 7]
apparent KD of MS2 coat protein [1]: 28.7 nM | apparent KD of MS2 coat protein [2]: 25.1 nM

AAGAAGUGAGGAUAUGCAAAAGAAAAGAAAAGAAAAGAAAAGCAGAAGGCACAUGAGGAUCACCCAUGUAAGAA [Petubastis III]
apparent KD of MS2 coat protein [1]: 28.9 nM | apparent KD of MS2 coat protein [2]: 12.8 nM

AAAUAGCAAGGAUAUACAUGAGGAUCACCCAUGUGAAAAAGGUAUGGAAUAGAAUAGAGUAGAAGGUGCAAAUA [Mod of Ex 3 Tesla 8 - Jieux - Exclusion 3]
apparent KD of MS2 coat protein [1]: 35.7 nM | apparent KD of MS2 coat protein [2]: 24.9 nM

UUUAUGUGAGGAUAUCAGUAGUAAAAAAAUAAAAUUACUACUGAGAAGGCACAUGAGGAUCACCCAUGUGUCUC [EX4 350: Super Stable 50]
apparent KD of MS2 coat protein [1]: 15 nM | apparent KD of MS2 coat protein [2]: 17.5 nM

CAGUACUGAGGAUAUACAUGAGGAUCACCCAUGUAUCCAAGCUAGGAAACUAGCACAUGUAGAAGGCAGUACUG [Ex3: 822]
apparent KD of MS2 coat protein [1]: 34.5 nM | apparent KD of MS2 coat protein [2]: 294 nM

GGGUGGCGAGGAUAUACAUGAGGAUCACCCAUGUGAGAGAAAAAAGUGAGAAAGAAAAGUAGAAGGCGCUGCCG [salish99-ex3-56]
apparent KD of MS2 coat protein [1]: 329 nM | apparent KD of MS2 coat protein [2]: 47.9 nM

AAAAAACAUGAGGAUCACCCAUGUCAGGAUAUCCUAAAGAAACUCGUAAAAAGAAAUAGGAGAAGGGACAAAAA [PK4]
apparent KD of MS2 coat protein [1]: 46.7 nM | apparent KD of MS2 coat protein [2]: 53.7 nM

AAAAAUGGAGGAUAUACAUGAGGAUCACCCAUGUGUAACAAAACAAAACACAAAAAAAGUAGAAGGCCAAAAAA [Gilly Gone Silly 5 - Jieux - Exclusion 3]
apparent KD of MS2 coat protein [1]: 20.4 nM | apparent KD of MS2 coat protein [2]: 19.2 nM

GGUUGGCGAGGAUAUACAUGAGGAUCACCCAUGUGAGAGAAUAAAGUGAGAAAGAAAAGUAGAAGGCGCUGACG [salish99-ex3-44]
apparent KD of MS2 coat protein [1]: 116 nM | apparent KD of MS2 coat protein [2]: 63.7 nM

AAGAAAGCAGGAUAUACAUGAGGAUCACCCAUGUAAAAGAAAGAAAAGGGAAAGAAAAGUAGAAGGGCUAAGAA [User/Heqamaatre-setpenamun Ramesses IV]
apparent KD of MS2 coat protein [1]: 74.1 nM | apparent KD of MS2 coat protein [2]: 27.2 nM

AACUGACAUGAGGAUCACCCAUGUCAGGAUAUGCUUCUAGGAAAAAAAAAAACUAGAUGCAGAAGGGAUAUGGA [Design 37 :P Sub-opt 13]
apparent KD of MS2 coat protein [1]: 12.1 nM | apparent KD of MS2 coat protein [2]: 14.5 nM

AAAAAGUCAGGAUAUGUCAAAGGUCACGAAAGUGACAAAGGACAGAAGGGACAUGAGGAUCACCCAUGUGGAAA [Fiskers Exclusion 4D1 65% - Late G segment 1]
apparent KD of MS2 coat protein [1]: 115 nM | apparent KD of MS2 coat protein [2]: 82 nM

AAGAAAGGAGGAUAUACAUGAGGAUCACCCAUGUAAAAGAAAGAAGGGAAAGAGAAAAGUAGAAGGCCUAAGAA [Wahibre Psamtik I]
apparent KD of MS2 coat protein [1]: 31 nM | apparent KD of MS2 coat protein [2]: 32.7 nM

AAAAAACAUGAGGAUCACCCAUGUGAGGAUAUCCAGAAGGGAAUAAAAUAACACGAAAGGAGAAGGCGCAAAAA [Ex 1 May 35]
apparent KD of MS2 coat protein [1]: 31.1 nM | apparent KD of MS2 coat protein [2]: 35.8 nM

GAAAAACAUGAGGAUCACCCAUGUAAGGAUAUGCUAAAAAACACGGAAAAACGUGAUAGCAGAAGGUACAAAAG [Mat - Exclusion 1 - Eli mod - D88]
apparent KD of MS2 coat protein [1]: 44 nM | apparent KD of MS2 coat protein [2]: 19.8 nM

AAAUAGCAAGGAUAUACAUGAGGAUCACCCAUGUAAGGAUGGAAAGUAAUAGAAGAAAGUAGAAGGUGCAAAUA [Ex 3 Tesla 4]
apparent KD of MS2 coat protein [1]: 36 nM | apparent KD of MS2 coat protein [2]: 31.7 nM

AAAAGACAUGAGGAUCACCCAUGUGAGGAUAUGCGAAAAAAAAAAAUAAAAAAAAAAAGUAGAAGGCACACCAA [Mat - Exclusion 1 - Eli mod - D56]
apparent KD of MS2 coat protein [1]: 248 nM | apparent KD of MS2 coat protein [2]: 177 nM

UAAAAACAUGAGGAUCACCCAUGUGAGGAUAUACGAAAGUAGAAGGCACUAAAAUAAAAUAGAAGGAUAAAAUA [Meechl Ex1 R2 m1]
apparent KD of MS2 coat protein [1]: 37.5 nM | apparent KD of MS2 coat protein [2]: 23.2 nM

AACAUGUUAGGAUAUUGAAGAAAAGAAAAGAAAGAAAAGAACAAGAAGGAACAUGAGGAUCACCCAUGUAAGAA [EteRNA is fun!]
apparent KD of MS2 coat protein [1]: 17.2 nM | apparent KD of MS2 coat protein [2]: 25 nM

AGAAAGUCAGGAUAUGCAGAAAAAAAAACGAAAAAAAAACUGCAGAAGGGACAUGAGGAUCACCCAUGUUAAGA [Mat - Exclusion 4 - Mayanna - D130]
apparent KD of MS2 coat protein [1]: 49 nM | apparent KD of MS2 coat protein [2]: 49 nM

AUAAAGUGAGGAUAUGUAAAAAUAACGAAAGUUAUAAAUAAACAGAAGGCACAUGAGGAUCACCCAUGUGAAAU [Meechl MS2 EX4 62% 2]
apparent KD of MS2 coat protein [1]: 22.5 nM | apparent KD of MS2 coat protein [2]: 24.2 nM

AAGAAGUGAGGAUAUCGAAGACUGUCGAAAAGACAGUCGAACGAGAAGGCACAUGAGGAUCACCCAUGUGAGAA [Marsurpial 65% 1]
apparent KD of MS2 coat protein [1]: 55.6 nM | apparent KD of MS2 coat protein [2]: 31 nM

AAAGGACGAGGAUAUACAUGAGGAUCACCCAUGUAAAGGGCAUAAUAAAAGAACUUAUGUAGAAGGCGUCCAAA [69%, Moding Meechl, 6]
apparent KD of MS2 coat protein [1]: 15.6 nM | apparent KD of MS2 coat protein [2]: 79.1 nM

AAGAACCAAGGAUAUACAUGAGGAUCACCCAUGUAAAAGAAAGAAAGGGAAAAGAAAAGUAGAAGGUGGAAGAA [Takelot I]
apparent KD of MS2 coat protein [1]: 32.8 nM | apparent KD of MS2 coat protein [2]: 28.1 nM

AAAUAGUUAGGAUAUACAUGAGGAUCACCCAUGUGCACGUAUGGAGAAUAUGGUAAUGGUAGAAGGGACUAAAA [EX2 Malc#21]
apparent KD of MS2 coat protein [1]: 76.5 nM | apparent KD of MS2 coat protein [2]: 44.5 nM

AACAGGUCAGGAUAUGUGGAAAAAAUAAAAAAAAUAAAAACACAGAAGGGACAUGAGGAUCACCCAUGUUAACA [May 25]
apparent KD of MS2 coat protein [1]: 38.8 nM | apparent KD of MS2 coat protein [2]: 36.6 nM

AAAAAACAUGAGGAUCACCCAUGUGAGGAUAUCCAAAAGUCAAAGAAAAAGACGAAAAGGAGAAGGCACAAAAA [Banishment 2 - Jieux - Exclusion 1]
apparent KD of MS2 coat protein [1]: 49.1 nM | apparent KD of MS2 coat protein [2]: 44.2 nM
